Reference: US20140030274A1 (ALPHABETA, published 2014)

Legend:
[1] = molecular target: the molecule itself; assay: crystal structure, subunit to subunit in the homotrimer
Protocol: Crystals suitable for structure determination were obtained within weeks by means of in situ proteolysis with trypsin. […] The structure presented herein was derived from crystals of seleno-methionylated protein, obtained using the sitting-drop method at 293 K and 277 K, in various concentrations ranging between 0.3-0.7 mM. A single crystal belonging to space group C2 (a=132.05 Å, b=39.33 Å, c=114.76 Å, β=99.6°) was grown from 0.1 M Bis-Tris pH 6.5 and 20% (w/v) PEG MME 5K. The crystal was soaked in 30% (w/v) PEG 400, flash-frozen in liquid nitrogen and used for data collection.
Data to 2.1 Å were collected at the European Synchrotron Radiation Facility, France, using an ADSC Q315 detector on the ID23eh1 beam line. All data were processed in MOSFLM12 and scaled in SCALA13. Data are essentially 100% complete to 2.3 Å Bragg spacing, then drop off rapidly and are only ˜60% complete in the outer resolution shell to 2.1 Å.

Aβ(M1-42) = Aβ(M1-42) (human); assay: cell-based or functional assay
Chain of Aβ(M1-42) (human) (peptide, as listed by the source): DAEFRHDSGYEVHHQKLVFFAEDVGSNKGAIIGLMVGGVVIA

Aβ(M1-40) [2] = molecular target: Aβ(M1-40) (human); assay: cell-based or functional assay
Aβ(M1-40) [3] = molecular target: T1, Aβ(M1-40) (human); assay: estimate from peak shapes in gel filtration (intermediate exchange on the gel filtration time scale)
T1 construct: Expressed in E. coli from a synthetic gene, and the monomer was isolated by gel filtration; also called Aβ40; human Aβ1-40 peptide
T1 sequence (peptide, as listed by the source): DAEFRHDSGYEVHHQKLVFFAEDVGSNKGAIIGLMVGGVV
Protocol: Samples were injected from a 1 mL loop and chromatograms recorded by monitoring the absorbance at 280 nm. To monitor protein interactions, mixtures of Aβ and BRICHOS domains were injected directly after mixing or after 2 or 20 hours incubation at 37° C. in 20 mM Na-phosphate, 200 μM EDTA, 0.02% NaN₃ at pH 7.4 or pH 8.0. Fractions (0.3-0.7 ml) were collected during the chromatogram, lyophilized and analyzed by SDS PAGE in a 10-20% gradient gel.
The interaction between the BRICHOS proteins and Aβ was studied using gel filtration. Samples of 8 μM Aβ40 and 0.8 μM proSP-C BRICHOS, or 8 μM Aβ40 and 0.8 μM Bri2 BRICHOS, were incubated for 20 hours at 37° C., followed by gel filtration on a Superdex75 column, and SDS PAGE analysis of collected fractions.
The 20 h time point was chosen for investigating potential interactions between the BRICHOS protein and Aβ, because at this time point Aβ alone would have fibrillated and reached the equilibrium plateau, whereas samples containing 0.1 molar equivalent of proSP-C or Bri2 BRICHOS are still in the lag phase (c.f. FIG. 9). The data in FIG. 11 show clearly that at this time point almost all of Aβ40 is monomeric, while a minor fraction elutes together with proSP-C BRICHOS in fractions 2-6. Similar results are observed for 8 μM Aβ40 and 0.8 μM Bri2 BRICHOS (FIG. 12B). […]

KKAAAAAAAKK = molecular target: T2, KKAAAAAAAKK; assay: HDX-MS
T2 construct: Non-substrate peptide; also called A7; KKA7KK
T2 peptide: KKAAAAAAAKK
Protocol: (§1) Deuterated buffers were prepared by three rounds of freeze-drying of the 1 M stock Tris buffer, pH 8, and reconstitution in 99.9% D₂O (Cambridge Isotopes, Andover, Mass.) to a final Tris concentration of 20 mM. To start the incubation at 22° C., CTC (CTproSP-C) stock solution with a concentration of 0.9 mM was diluted in deuterated Tris buffer to a final deuterium content of 92.5%. For CTC/peptide and proSP-C BRICHOS/peptide interaction studies, KKV₇KK, KKV₅KK, or KKA₇KK were pre-incubated with either Tris buffer or proteins, for 10 min at 22° C., and subsequently diluted in deuterated Tris buffer. Final concentrations were 30 μM CTC or proSP-C BRICHOS and 40 μM peptide. The deuterium content was 92.5%. Aliquots of 20 μl were collected in triplicates from three separate incubations after 1, 5, 10, 30, and 60 min. Fully deuterated protein was prepared by freeze-drying a sample of CTC, followed by resuspension in 99.9% D₂O and incubation for 4 h at 50° C. Deuterium exchange was quenched by transferring aliquots to pre-chilled Eppendorf tubes containing 0.5 μL 5% trifluoroacetic acid (TFA) (Merck, Darmstadt, Germany), vortexing, and freezing in liquid nitrogen. Samples were kept in liquid nitrogen until analyzed.
(§2) Aliquots of deuterated CTC were thawed and injected into an HPLC system using a pre-chilled Hamilton syringe. The system was submersed in an ice bath during analysis. […]

KKVVVVVKK = molecular target: T3, KKVVVVVKK; assay: HDX-MS, 30 µM CTC and 40 µM peptide
T3 construct: Substrate peptide; also called V5; KKV5KK
T3 peptide: KKVVVVVKK
Protocol: as §1, §2

KKVVVVVVVKK = molecular target: T4, KKVVVVVVVKK; assay: HDX-MS, 30 µM CTC and 40 µM peptide
T4 construct: Substrate peptide; also called V7; KKV7KK
T4 peptide: KKVVVVVVVKK
Protocol: as §1, §2

B1: crystallised proSP-C BRICHOS trimer (seleno-methionylated CTC after in situ proteolysis with trypsin, residues 82-160 and 168-197 of proSP-C) (other)
chain 1: LALSEHLVTTATFSIGSTGLVVYDYQQLLIAYKPAPGTCCYIMKIAPESIPSLEALNRKVHNFQMECSLQAKPAVPTSK
chain 2: DAGSAPSGGDPAFLGMAVNTLCGEVPLYYI
modifications: seleno-methionylated protein; seleno-methionylated protein; disulfide bridge Cys121-Cys189 to the second chain
notes: There are two trimers per asymmetric unit, and data extend to 2.1 Å; Residues about 149-180 are not modelled; also called crystallized protein
[1]
  binding result: binds

B2: Bri2 BRICHOS (recombinant human Bri2 BRICHOS construct as described in Peng et al. 2010) (other)
chain: GIKYIKDDVILNEPSADAPAALYQTIEENIKIFEEEEVEFISVPVPEFADSDPANIVHDFNKKLTAYLDLNLDKCYVIPLNTSIVMPPRNLLELLINIKAGTYLPQSYLIHEHMVITDRIENIDHLGFFIYRLCHDKETYKLQRRET
notes: also called Bri2 BRICHOS domain; BRICHOS protein
Aβ(M1-42)
  ten-fold increase in lag time of Aβ42 aggregation (ThT fluorescence): ~0.6 molar equivalents
Aβ(M1-40) [2]
  10-fold increase in lag time of Aβ40 aggregation (ThT fluorescence): ~0.01 equivalents
  molar ratio above which the lag time of Aβ40 aggregation exceeds one week: 0.025 molar ratio
Aβ(M1-40) [3]
  koff: 0.001 to 0.01 s⁻¹

B3: proSP-C BRICHOS (recombinant human, His59 to Ile197 of proSP-C, Examples 4-8) (other)
chain: HMSQKHTEMVLEMSIGAPEAQQRLALSEHLVTTATFSIGSTGLVVYDYQQLLIAYKPAPGTCCYIMKIAPESIPSLEALNRKVHNFQMECSLQAKPAVPTSKLGQAEGRDAGSAPSGGDPAFLGMAVNTLCGEVPLYYI
notes: Expressed in E. coli, with the thioredoxin and His6-tag removed by thrombin; Gel filtration indicates a trimer at 0 h and monomers eluting with Aβ after 20 h; also called recombinant human proSP-C BRICHOS; BRICHOS protein
Aβ(M1-42)
  ten-fold increase in lag time of Aβ42 aggregation (ThT fluorescence): ~0.6 molar equivalents
Aβ(M1-40) [2]
  10-fold increase in lag time of Aβ40 aggregation (ThT fluorescence): ~0.03 equivalents
  molar ratio above which the lag time of Aβ40 aggregation exceeds one week: 0.06 molar ratio
  ratio above which Aβ40 aggregation does not occur within one week: 10 Aβ40 molecules per 1 proSP-C BRICHOS
Aβ(M1-40) [3]
  koff: 0.001 to 0.01 s⁻¹

B4: CTproSP-C, the C-terminal domain of lung surfactant protein C precursor (residues 59-197 of human proSP-C) (other)
chain: B3 chain
notes: also called CTC; recombinant CTC
KKAAAAAAAKK
  binding result: no binding (tested: 30 µM CTC and 40 µM peptide)
KKVVVVVKK
  binding result: binds
KKVVVVVVVKK
  binding result: binds
